What was measured:
[1] = molecular target: T1, dog Met receptor on MDCK cells (dog, UniProt Q75ZY9 25-1382); assay: FACS on MDCK cells, Alexa Fluor 488 anti-human IgG
T1 construct: whole, on cells; also called Met receptor of dog kidney MDCK (Madin-Darby Canine Kidney) cells
Experimental: Each of Hep3B, HeLa, A549 and HepG2, known to readily express the Met receptor, MCF7 cells known to not readily express the Met receptor, and dog kidney MDCK (Madin-Darby Canine Kidney) cells was prepared, washed twice with PBS, detached by treatment with trypsin, washed again with PBS, and then suspended in PBS (PBA buffer) containing 1% BSA protein. Then, the cells were treated with the purified with the purified B7 antibody at 1:100 at 4° C., after which the cells were washed with PBA buffer and precipitated by centrifugation at 1200 rpm for 3 minutes, and the washing and precipitation process was repeated three times. […] The cells were washed in the same manner as described above and subjected to FACS analysis (BD Cantoll Flow Cytometer) (FIG. 6). Herein, human IgG (hIgG) was used as the internal standard. FIG. 6 is a graphic diagram showing the results of FACS analysis performed to examine whether the B7 antibody did bind to Hep3B, HeLa, A549, HepG2, MCF7 and dog kidney MDCK cells.

[2] = molecular target: c-Met (ligand of the SPR analysis, form not stated) (UniProt P08581); assay: SPR (ProteOn XPR36), B7 at 2.5 to 80 nM as analyte, Langmuir 1:1 fit, grouped
[3] = molecular target: c-Met (ligand of the SPR analysis, form not stated) (UniProt P08581); assay: SPR (ProteOn XPR36), B7 antibody flowed at 2.5-80 nM, Langmuir 1:1 model; immobilised protein not named

T1 sequence (Q75ZY9 25-1382): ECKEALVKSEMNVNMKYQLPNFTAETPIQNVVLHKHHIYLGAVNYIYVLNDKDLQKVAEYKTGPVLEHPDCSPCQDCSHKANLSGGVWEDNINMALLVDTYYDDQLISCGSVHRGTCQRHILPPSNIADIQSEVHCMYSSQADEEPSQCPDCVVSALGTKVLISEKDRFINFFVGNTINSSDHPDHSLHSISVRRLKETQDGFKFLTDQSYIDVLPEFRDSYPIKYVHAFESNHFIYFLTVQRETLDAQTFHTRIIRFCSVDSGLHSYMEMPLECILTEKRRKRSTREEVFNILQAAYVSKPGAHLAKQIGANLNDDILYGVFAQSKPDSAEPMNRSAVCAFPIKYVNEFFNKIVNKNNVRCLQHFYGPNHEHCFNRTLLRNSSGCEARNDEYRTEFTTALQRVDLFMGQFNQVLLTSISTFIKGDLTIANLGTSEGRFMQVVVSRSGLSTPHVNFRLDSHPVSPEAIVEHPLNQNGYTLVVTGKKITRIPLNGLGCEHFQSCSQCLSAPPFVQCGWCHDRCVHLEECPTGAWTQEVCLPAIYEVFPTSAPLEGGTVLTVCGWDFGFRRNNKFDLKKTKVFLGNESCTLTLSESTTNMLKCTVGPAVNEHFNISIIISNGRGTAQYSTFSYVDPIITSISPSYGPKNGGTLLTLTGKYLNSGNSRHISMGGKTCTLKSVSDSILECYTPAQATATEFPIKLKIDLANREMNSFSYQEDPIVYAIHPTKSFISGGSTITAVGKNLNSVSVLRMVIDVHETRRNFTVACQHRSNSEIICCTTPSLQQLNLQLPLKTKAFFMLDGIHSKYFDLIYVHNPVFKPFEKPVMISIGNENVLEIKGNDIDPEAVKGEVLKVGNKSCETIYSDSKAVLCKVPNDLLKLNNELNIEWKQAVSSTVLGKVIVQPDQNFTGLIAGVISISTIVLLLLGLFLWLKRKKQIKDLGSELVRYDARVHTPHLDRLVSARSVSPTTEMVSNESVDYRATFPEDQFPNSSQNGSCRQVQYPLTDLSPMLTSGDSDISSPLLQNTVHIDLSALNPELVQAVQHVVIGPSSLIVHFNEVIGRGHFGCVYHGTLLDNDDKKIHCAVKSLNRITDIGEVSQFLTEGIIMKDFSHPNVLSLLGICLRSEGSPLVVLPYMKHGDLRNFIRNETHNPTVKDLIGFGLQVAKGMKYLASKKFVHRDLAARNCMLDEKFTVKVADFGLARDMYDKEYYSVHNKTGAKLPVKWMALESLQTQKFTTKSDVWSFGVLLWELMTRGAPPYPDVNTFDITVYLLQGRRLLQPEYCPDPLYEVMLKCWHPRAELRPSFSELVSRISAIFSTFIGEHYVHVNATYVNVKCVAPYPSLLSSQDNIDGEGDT

B1: B7 antibody (human anti-c-Met antibody, whole IgG) (antibody, V domains shown)
VH: QVQLQEWGAGLLKPSETLSLTCAVSGGSLSGHYWSWVRLPPGKGLEWIGEISHSGNTNYNSSLKSRASISIDTSKNEYSLNLKSVTAVDTAVYYCARFYGDYPSSYGMDVWGQGTTVTVSS
VL: QSALTQPASVSGSPGQSITISCTGTISDIGTYDFVSWYQHKPGKAPKLLIFDVNNRPSGVSSRFSGSKSDNTASLSISGFQAEDEADYYCSSYTDNRGLVLFGGGTKLTVLR
notes: Whole IgG made by cloning the B7 phage variable regions into pNATABH/pNATABL vectors and expressing them in 293E cells; also called human antibody B7; C-Met B7 antibody
[1]
  binding result: no binding (tested: 1:100)
[2]
  kon: 73000 M⁻¹ s⁻¹
[3]
  Kd: 3.3 nM

— patent US20140193431A1 (KOREA RESEARCH INSTITUTE OF BIOSCIENCE AND BIOTECHNOLOGY, published 2014)
